Assay results taken from patent publication US20250262210A1 (TRUSTEES OF COLUMBIA UNIVERSITY IN THE CITY OF NEW YORK, published 2025).

How the values were obtained:
Test in all cases: IP/MS, LZTR1 R810W-FLAG, U87
[1] = molecular target: DIP2B (human, UniProt Q9P265 1-1576)
How it was run: (§1)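 Read-out: spectral counts from LC-MS/MS (Orbitrap Fusion) after MaxQuant identification. Variable modifications were Met oxidation, protein N-terminal acetylation and N/Q deamidation.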

[2] = molecular target: T1, PARP10 (human, UniProt Q53GL7 1-1025)
T1 sequence (looked up): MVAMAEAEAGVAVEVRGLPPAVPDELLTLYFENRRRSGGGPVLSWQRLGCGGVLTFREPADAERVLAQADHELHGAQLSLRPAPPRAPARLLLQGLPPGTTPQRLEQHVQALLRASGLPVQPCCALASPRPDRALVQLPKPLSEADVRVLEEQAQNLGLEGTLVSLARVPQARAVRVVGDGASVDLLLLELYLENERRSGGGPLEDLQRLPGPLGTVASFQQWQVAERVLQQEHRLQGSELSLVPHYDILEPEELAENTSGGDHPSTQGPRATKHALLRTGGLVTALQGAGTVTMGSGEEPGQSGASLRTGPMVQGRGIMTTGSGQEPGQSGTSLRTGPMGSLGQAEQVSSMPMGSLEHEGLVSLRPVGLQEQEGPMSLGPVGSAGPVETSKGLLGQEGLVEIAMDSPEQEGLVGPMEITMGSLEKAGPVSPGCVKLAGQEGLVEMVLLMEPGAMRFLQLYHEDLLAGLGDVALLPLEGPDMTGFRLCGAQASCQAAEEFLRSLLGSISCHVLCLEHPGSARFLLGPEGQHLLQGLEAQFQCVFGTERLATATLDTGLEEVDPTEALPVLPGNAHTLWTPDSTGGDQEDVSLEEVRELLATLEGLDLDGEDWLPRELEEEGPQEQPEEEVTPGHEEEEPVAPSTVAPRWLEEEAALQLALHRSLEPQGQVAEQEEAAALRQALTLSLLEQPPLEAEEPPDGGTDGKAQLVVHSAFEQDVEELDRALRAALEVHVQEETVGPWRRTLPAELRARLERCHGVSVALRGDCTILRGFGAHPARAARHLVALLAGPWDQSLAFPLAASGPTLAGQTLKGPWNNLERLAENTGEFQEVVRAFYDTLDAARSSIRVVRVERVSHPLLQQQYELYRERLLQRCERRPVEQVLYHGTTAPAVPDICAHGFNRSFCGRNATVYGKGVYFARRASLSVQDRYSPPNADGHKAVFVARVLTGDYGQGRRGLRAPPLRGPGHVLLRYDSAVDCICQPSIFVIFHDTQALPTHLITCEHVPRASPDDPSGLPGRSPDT
How it was run: as §1

[3] = molecular target: T2, ELP1 (human, UniProt O95163 1-1332)
T2 sequence (looked up): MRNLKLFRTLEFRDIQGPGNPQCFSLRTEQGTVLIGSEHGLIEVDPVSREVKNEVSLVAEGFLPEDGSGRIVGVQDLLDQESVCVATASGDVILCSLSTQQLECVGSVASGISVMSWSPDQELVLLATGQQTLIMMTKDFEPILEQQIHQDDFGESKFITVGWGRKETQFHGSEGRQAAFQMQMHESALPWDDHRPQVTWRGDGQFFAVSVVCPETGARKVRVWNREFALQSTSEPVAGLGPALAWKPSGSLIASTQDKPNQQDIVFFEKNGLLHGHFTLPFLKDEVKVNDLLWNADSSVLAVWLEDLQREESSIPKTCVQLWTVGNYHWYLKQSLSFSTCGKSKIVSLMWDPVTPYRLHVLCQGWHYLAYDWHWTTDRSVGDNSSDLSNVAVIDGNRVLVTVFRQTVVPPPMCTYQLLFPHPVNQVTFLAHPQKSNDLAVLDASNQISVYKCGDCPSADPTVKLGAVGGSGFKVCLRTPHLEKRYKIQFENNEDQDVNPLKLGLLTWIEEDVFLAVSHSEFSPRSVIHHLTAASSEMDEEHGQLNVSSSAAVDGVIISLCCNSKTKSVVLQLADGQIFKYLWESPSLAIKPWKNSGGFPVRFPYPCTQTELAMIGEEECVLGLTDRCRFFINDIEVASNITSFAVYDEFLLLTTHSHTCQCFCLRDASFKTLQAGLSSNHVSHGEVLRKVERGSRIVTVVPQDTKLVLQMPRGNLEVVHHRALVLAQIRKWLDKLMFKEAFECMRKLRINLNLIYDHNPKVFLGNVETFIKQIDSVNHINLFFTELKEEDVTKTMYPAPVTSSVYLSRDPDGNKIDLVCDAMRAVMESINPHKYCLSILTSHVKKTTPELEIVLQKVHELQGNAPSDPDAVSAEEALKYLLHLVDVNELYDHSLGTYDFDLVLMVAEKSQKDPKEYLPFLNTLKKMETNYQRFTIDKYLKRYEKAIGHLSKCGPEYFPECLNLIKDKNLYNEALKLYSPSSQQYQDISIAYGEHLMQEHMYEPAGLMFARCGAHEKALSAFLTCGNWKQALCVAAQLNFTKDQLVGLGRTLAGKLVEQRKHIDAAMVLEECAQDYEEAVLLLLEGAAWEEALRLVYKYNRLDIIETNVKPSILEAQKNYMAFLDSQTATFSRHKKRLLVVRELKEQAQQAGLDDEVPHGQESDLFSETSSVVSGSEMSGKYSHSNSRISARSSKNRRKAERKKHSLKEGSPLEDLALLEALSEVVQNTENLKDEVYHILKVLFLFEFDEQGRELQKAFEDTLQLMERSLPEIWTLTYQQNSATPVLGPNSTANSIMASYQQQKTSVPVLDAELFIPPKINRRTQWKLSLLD
How it was run: as §1

Measured: binding result

Chain of DIP2B (Q9P265 whole entry, the tested form may be a part): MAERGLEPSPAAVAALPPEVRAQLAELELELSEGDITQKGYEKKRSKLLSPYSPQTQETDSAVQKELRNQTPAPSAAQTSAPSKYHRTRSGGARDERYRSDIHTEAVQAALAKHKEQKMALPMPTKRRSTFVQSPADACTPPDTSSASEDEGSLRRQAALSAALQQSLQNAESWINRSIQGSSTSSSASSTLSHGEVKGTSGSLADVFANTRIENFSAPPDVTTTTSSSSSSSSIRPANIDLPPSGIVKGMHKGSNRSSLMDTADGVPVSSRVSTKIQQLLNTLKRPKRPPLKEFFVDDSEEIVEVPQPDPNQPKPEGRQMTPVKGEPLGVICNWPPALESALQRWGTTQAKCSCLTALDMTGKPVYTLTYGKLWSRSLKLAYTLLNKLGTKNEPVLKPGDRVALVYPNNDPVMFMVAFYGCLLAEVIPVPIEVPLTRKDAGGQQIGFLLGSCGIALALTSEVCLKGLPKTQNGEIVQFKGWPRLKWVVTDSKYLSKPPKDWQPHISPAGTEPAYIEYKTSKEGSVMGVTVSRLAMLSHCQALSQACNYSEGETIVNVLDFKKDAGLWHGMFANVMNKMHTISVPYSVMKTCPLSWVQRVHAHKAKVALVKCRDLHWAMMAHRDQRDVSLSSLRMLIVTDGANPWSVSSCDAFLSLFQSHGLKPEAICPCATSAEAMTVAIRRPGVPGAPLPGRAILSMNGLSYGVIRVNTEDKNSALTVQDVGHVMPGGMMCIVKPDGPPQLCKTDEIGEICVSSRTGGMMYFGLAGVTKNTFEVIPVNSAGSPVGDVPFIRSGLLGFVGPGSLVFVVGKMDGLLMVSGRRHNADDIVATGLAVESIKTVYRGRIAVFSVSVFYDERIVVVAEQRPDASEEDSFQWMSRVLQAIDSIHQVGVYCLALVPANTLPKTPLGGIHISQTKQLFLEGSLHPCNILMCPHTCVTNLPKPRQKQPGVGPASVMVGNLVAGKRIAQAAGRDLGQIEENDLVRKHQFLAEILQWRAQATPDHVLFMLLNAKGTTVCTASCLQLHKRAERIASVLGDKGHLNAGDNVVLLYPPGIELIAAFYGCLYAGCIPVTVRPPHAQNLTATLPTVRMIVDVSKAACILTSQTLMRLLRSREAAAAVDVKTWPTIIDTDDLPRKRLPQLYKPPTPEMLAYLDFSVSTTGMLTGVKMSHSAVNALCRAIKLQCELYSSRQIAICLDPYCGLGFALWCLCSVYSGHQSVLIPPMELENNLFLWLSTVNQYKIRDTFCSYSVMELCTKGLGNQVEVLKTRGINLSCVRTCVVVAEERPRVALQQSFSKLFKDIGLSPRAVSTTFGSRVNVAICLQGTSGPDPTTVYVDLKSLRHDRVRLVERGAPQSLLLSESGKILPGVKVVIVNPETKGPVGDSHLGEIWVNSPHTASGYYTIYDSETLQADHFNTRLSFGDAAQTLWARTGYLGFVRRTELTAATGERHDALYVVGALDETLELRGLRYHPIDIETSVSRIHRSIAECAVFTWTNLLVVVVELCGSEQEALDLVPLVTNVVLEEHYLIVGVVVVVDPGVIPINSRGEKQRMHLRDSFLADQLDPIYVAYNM

B1: LZTR1 R810W-FLAG (other, human, UniProt Q8N653 1-840, looked up)
chain: MAGPGSTGGQIGAAALAGGARSKVAPSVDFDHSCSDSVEYLTLNFGPFETVHRWRRLPPCDEFVGARRSKHTVVAYKDAIYVFGGDNGKTMLNDLLRFDVKDCSWCRAFTTGTPPAPRYHHSAVVYGSSMFVFGGYTGDIYSNSNLKNKNDLFEYKFATGQWTEWKIEGRLPVARSAHGATVYSDKLWIFAGYDGNARLNDMWTIGLQDRELTCWEEVAQSGEIPPSCCNFPVAVCRDKMFVFSGQSGAKITNNLFQFEFKDKTWTRIPTEHLLRGSPPPPQRRYGHTMVAFDRHLYVFGGAADNTLPNELHCYDVDFQTWEVVQPSSDSEVGGAEVPERACASEEVPTLTYEERVGFKKSRDVFGLDFGTTSAKQPTQPASELPSGRLFHAAAVISDAMYIFGGTVDNNIRSGEMYRFQFSCYPKCTLHEDYGRLWESRQFCDVEFVLGEKEECVQGHVAIVTARSRWLRRKITQARERLAQKLEQEAAPVPREAPGVAAGGARPPLLHVAIREAEARPFEVLMQFLYTDKIKYPRKGHVEDVLLIMDVYKLALSFQLCRLEQLCRQYIEASVDLQNVLVVCESAARLQLSQLKEHCLNFVVKESHFNQVIMMKEFERLSSPLIVEIVRRKQQPPPRTPLDQPVDIGTSLIQDMKAYLEGAGAEFCDITLLLDGHPRPAHKAILAARSSYFEAMFRSFMPEDGQVNISIGEMVPSRQAFESMLRYIYYGEVNMPPEDSLYLFAAPYYYGFYNNRLQAYCKQNLEMNVTVQNVLQILEAADKTQALDMKRHCLHIIVHQFTKVSKLPTLWSLSQQLLLDIIDSLASHISDKQCAELGADI
notes: Stably expressed in U87 cells by lentivirus; also called LZTR1-FLAG-R810W; LZTR1 RW; not shown: FLAG tag
binds: all assays above
